Source: publication PMC3517901, “The TSC1-TSC2 complex consists of multiple TSC1 and TSC2 subunits” (BMC Biochemistry, 2012)

B1: TSC1-TEV-myc, released from anti-myc beads by AcTEV (natural protein, UniProt Q92574 1-1164, looked up)
chain: MAQQANVGELLAMLDSPMLGVRDDVTAVFKENLNSDRGPMLVNTLVDYYLETSSQPALHILTTLQEPHDKHLLDRINEYVGKAATRLSILSLLGHVIRLQPSWKHKLSQAPLLPSLLKCLKMDTDVVVLTTGVLVLITMLPMIPQSGKQHLLDFFDIFGRLSSWCLKKPGHVAEVYLVHLHASVYALFHRLYGMYPCNFVSFLRSHYSMKENLETFEEVVKPMMEHVRIHPELVTGSKDHELDPRRWKRLETHDVVIECAKISLDPTEASYEDGYSVSHQISARFPHRSADVTTSPYADTQNSYGCATSTPYSTSRLMLLNMPGQLPQTLSSPSTRLITEPPQATLWSPSMVCGMTTPPTSPGNVPPDLSHPYSKVFGTTAGGKGTPLGTPATSPPPAPLCHSDDYVHISLPQATVTPPRKEERMDSARPCLHRQHHLLNDRGSEEPPGSKGSVTLSDLPGFLGDLASEEDSIEKDKEEAAISRELSEITTAEAEPVVPRGGFDSPFYRDSLPGSQRKTHSAASSSQGASVNPEPLHSSLDKLGPDTPKQAFTPIDLPCGSADESPAGDRECQTSLETSIFTPSPCKIPPPTRVGFGSGQPPPYDHLFEVALPKTAHHFVIRKTEELLKKAKGNTEEDGVPSTSPMEVLDRLIQQGADAHSKELNKLPLPSKSVDWTHFGGSPPSDEIRTLRDQLLLLHNQLLYERFKRQQHALRNRRLLRKVIKAAALEEHNAAMKDQLKLQEKDIQMWKVSLQKEQARYNQLQEQRDTMVTKLHSQIRQLQHDREEFYNQSQELQTKLEDCRNMIAELRIELKKANNKVCHTELLLSQVSQKLSNSESVQQQMEFLNRQLLVLGEVNELYLEQLQNKHSDTTKEVEMMKAAYRKELEKNRSHVLQQTQRLDTSQKRILELESHLAKKDHLLLEQKKYLEDVKLQARGQLQAAESRYEAQKRITQVFELEILDLYGRLEKDGLLKKLEEEKAEAAEAAEERLDCCNDGCSDSMVGHNEEASGHNGETKTPRPSSARGSSGSRGGGGSSSSSSELSTPEKPPHQRAGPFSSRWETTMGEASASIPTTVGSLPSSKSFLGMKARELFRNKSESQCDEDGMTSSLSESLKTELGKDLGVEAKIPLNLDGPHPSPPTPDSVGQLHIMDYNETHHEHS
notes: TSC1 with an AcTEV recognition site (ENLYFQG) introduced by site directed mutagenesis before the myc tag; after cleavage part of the site (ENLYFQ) would remain on TSC1; The position of the site is in Additional file 1
B2: TSC2, untagged, full-length (transfected) (natural protein)
chain: not shown
notes: TSC2; also called untagged TSC2; source: HEK 293T, transfected, in lysate; also co-purified with TSC1-TEV-myc on anti-myc beads and released by AcTEV

Legend:
[1] = biological target: B2; experiment: SEC; TSC1-TSC2 complex from cotransfected HEK 293T cells, purified on anti-myc affinity beads, released by AcTEV overnight at 4°C, Coomassie gel and Superose 6 gel filtration, fractions immunoblotted; settings: both partners purified
[2] = biological target: the molecule itself; experiment: as above

Binder | binding result [1] | binding result [2]
B1 | binds | 
B2 |  | binds
